Results published in paper PMC4410396 (Acta Naturae, 2015).

Experiments:
MorFDH = molecular target: T1, MorFDH (Moraxella sp., UniProt O08375, A199G); experiment: spectrophotometric NAD(P)H formation at […] nm; type: biochemical; details: saturating formate (>15 KM); 0.1 M sodium phosphate pH 7.0, 30°C; read-out: KMKNAD^+
T1 construct: gene fdh; recombinant, plasmid pMorFDH2, E. coli BL21(DE3)/pLysS; no tag mentioned; Phenyl Sepharose and Sephadex G-25
T1 sequence (O08375 2-402 A199G): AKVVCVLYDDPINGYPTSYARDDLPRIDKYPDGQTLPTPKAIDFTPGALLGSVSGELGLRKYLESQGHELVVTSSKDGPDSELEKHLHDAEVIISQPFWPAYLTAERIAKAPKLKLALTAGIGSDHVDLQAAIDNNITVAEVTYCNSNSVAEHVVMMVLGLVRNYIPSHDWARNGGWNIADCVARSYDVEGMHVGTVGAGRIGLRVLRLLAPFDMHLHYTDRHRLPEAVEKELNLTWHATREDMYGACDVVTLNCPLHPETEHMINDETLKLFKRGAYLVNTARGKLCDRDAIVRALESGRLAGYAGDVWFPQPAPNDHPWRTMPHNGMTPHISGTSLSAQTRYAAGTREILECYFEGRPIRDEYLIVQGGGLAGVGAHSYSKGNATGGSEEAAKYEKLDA

[1] = test system: T2, NC(=O)c1ccc[n+]([C@@H]2O[C@H](COP(=O)(O)OP(=O)(O)OC[C@H]3O[C@@H](n4cnc5c(N)ncnc54)[C@H](O)[C@@H]3O)[C@@H](O)[C@H]2O)c1; experiment: purified protein; type: biochemical, Pseudomonas sp. 101; details: saturating formate (>15 KM), 0.1 M sodium phosphate pH 7.0, 30°C
T2 construct: recombinant, plasmid pPseFDH8, E. coli BL21(DE3)/pLysS; no tag mentioned; Phenyl Sepharose and Sephadex G-25

[2] = test system: T3, NC(=O)c1ccc[n+]([C@@H]2O[C@H](COP(=O)(O)OP(=O)(O)OC[C@H]3O[C@@H](n4cnc5c(N)ncnc54)[C@H](OP(=O)(O)O)[C@@H]3O)[C@@H](O)[C@H]2O)c1; experiment: purified protein; type: biochemical, Pseudomonas sp. 101; details: saturating formate (>15 KM), 0.1 M sodium phosphate pH 7.0, 30°C
T3 construct: recombinant, plasmid pPseFDH8, E. coli BL21(DE3)/pLysS; no tag mentioned; Phenyl Sepharose and Sephadex G-25

purified protein = substrate: NC(=O)c1ccc[n+]([C@@H]2O[C@H](COP(=O)(O)OP(=O)(O)OC[C@H]3O[C@@H](n4cnc5c(N)ncnc54)[C@H](OP(=O)(O)O)[C@@H]3O)[C@@H](O)[C@H]2O)c1; experiment: purified protein; type: biochemical, Pseudomonas sp. 101; details: saturating formate (>15 KM), 0.1 M sodium phosphate pH 7.0, 30°C, printed with an asterisk

Molecule | Km [1] [µM] | kcat [1] [s⁻¹] | also measured
NC(=O)c1ccc[n+]([C@@H]2O[C@H](COP(=O)(O)OP(=O)(O)OC[C@H]3O[C@@H](n4cnc5c(N)ncnc54)[C@H](O)[C@@H]3O)[C@@H](O)[C@H]2O)c1 [NAD^+] | – | – | Km (MorFDH): 45 ± 3 µM
PseFDH (Pseudomonas sp. 101; A199G) | 35 ± 2 | – | –
PseFDH (Pseudomonas sp. 101; A199G/D222S) | 540 ± 42 | 5.0 ± 0.2 | Km [2]: 280 ± 25 µM; kcat [2]: 1.8 ± 0.2 s⁻¹
PseFDH (Pseudomonas sp. 101; D222S) | 710 ± 45 | 5.0 ± 0.3 | –
PseFDH (Pseudomonas sp. 101) (protein, recombinant, plasmid pPseFDH8, E. coli BL21(DE3)/pLysS; no tag mentioned; Phenyl Sepharose and Sephadex G-25) AKVLCVLYDDPVDGYPKTYARDDLPKIDHYPGGQTLPTPKAIDFTPGQLLGSVSGELGLRKYLESNGHTLVVTSDKDGPDSVFERELVDADVVISQPFWPAYLTPERIAKAKNLKLALTAGIGSDHVDLQSAIDRNVTVAEVTYCNSISVAEHVVMMILSLVRNYLPSHEWARKGGWNIADCVSHAYDLEAMHVGTVAAGRIGLAVLRRLAPFDVHLHYTDRHRLPESVEKELNLTWHATREDMYPVCDVVTLNCPLHPETEHMINDETLKLFKRGAYIVNTARGKLCDRDAVARALESGRLAGYAGDVWFPQPAPKDHPWRTMPYNGMTPHISGTTLTAQARYAAGTREILECFFEGRPIRDEYLIVQGGALAGTGAHSYSKGNATGGSEEAAKFKKAV | – | – | kcat (purified protein): 1.3 ± 0.1 s⁻¹
